Test results: patent US20240301052A1 (LANOVA MEDICINES DEVELOPMENT, published 2024)
Numbering of substitutions follows the chain as printed. Like-named read-outs stand apart in the source and are kept apart here. Values belong to the binder of their own block, whether it stands above or below them.

Legend:
[1] = target: T1, human SLC34A2 (human, UniProt O95436 1-690); test: FACS, RMG-1 cells
T1 construct: whole, on cells; also called human solute carrier 34 A2; NaPi2b
T1 sequence (looked up): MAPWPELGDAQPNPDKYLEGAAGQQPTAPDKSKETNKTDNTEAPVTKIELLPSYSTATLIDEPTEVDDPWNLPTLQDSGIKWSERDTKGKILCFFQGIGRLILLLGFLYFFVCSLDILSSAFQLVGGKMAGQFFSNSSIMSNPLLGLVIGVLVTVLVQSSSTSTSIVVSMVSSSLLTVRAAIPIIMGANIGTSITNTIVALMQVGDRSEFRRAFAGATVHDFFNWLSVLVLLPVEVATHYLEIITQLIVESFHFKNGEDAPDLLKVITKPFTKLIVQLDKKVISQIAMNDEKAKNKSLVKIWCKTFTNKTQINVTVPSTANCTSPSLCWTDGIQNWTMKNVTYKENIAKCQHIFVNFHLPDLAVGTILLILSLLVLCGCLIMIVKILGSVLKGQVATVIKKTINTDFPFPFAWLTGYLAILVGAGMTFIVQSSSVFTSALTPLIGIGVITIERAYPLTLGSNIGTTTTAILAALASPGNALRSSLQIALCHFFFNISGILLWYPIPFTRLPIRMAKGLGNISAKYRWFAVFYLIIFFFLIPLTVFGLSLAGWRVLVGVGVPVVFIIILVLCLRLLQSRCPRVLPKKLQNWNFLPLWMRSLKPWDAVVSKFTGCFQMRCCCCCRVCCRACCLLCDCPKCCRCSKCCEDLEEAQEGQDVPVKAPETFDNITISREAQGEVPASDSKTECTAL
Summary of the method: (§1)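 Humanized antibodies were incubated with HEK293/H_SLC34A2, OVCAR3 or RMG-1 cells at 4° C. for 60 minutes. Cells were washed twice with FACS buffer, stained with fluorescent secondary antibody at 4° C. for 30 minutes, washed twice more and analyzed by flow cytometry.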

[2] = target: T1, human SLC34A2; test: FACS, OVCAR3 cells
Method: The binding of these humanized antibodies to OVCAR3 cells was evaluated as described above, and the results are shown in FIG. 12A-D and Tables 16A-D.

[3] = target: T1, human SLC34A2; test: FACS, OVCAR3 cells; remark: listed apart in the source
Summary of the method: as §1

[4] = target: T2, rat SLC34A2 (rat, UniProt Q9JJ09 1-695); test: FACS, HEK293/Rat SLC34A2 cells
T2 construct: whole, on cells
T2 sequence (looked up): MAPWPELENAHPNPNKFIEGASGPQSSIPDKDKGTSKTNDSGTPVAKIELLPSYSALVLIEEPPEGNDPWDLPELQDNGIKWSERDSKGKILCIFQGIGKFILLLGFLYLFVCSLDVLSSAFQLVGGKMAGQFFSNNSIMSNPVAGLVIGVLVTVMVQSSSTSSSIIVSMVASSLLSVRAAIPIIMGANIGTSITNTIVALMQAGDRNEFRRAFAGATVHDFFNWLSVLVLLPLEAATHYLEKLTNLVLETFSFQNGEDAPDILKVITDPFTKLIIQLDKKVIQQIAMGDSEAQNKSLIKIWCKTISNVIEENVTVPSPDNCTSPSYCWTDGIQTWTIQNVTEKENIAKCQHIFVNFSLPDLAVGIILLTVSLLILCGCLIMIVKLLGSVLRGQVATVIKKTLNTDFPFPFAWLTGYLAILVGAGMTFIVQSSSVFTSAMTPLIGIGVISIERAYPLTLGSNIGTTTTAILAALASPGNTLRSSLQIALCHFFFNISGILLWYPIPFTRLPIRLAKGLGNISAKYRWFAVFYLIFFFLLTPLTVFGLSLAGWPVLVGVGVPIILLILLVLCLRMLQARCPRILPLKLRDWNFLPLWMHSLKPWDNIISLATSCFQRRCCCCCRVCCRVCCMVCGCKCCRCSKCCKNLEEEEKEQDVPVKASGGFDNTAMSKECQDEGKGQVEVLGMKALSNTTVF

[5] = target: T3, mouse SLC34A2 (mouse, UniProt Q9DBP0 1-697); test: FACS, HEK293/Mouse SLC34A2 cells
T3 construct: whole, on cells
T3 sequence (looked up): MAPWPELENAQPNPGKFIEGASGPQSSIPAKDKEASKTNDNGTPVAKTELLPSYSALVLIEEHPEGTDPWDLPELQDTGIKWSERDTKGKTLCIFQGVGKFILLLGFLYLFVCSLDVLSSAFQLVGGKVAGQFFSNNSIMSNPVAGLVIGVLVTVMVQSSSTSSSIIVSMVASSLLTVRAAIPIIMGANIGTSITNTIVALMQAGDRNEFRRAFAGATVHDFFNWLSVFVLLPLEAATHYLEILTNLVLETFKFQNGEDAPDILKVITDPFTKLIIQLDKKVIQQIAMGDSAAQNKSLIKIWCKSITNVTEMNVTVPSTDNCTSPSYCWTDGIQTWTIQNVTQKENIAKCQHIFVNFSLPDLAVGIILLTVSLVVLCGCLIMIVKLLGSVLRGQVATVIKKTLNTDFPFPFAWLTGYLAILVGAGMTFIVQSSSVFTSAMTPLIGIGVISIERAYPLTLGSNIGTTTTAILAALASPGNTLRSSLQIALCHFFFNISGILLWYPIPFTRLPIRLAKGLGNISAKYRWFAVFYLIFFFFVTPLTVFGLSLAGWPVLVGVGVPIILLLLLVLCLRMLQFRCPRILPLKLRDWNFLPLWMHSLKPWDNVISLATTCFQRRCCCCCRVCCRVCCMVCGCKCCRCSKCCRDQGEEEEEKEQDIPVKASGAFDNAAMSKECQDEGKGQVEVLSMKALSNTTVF

[6] = target: T1, human SLC34A2; test: FACS, HEK293/human SLC34A2 cells
Summary of the method: as §1

[7] = target: T4, Rhesus SLC34A2 (Rhesus, UniProt F7HDA3 1-690); test: FACS, HEK293/Rhesus SLC34A2 cells
T4 construct: whole, on cells
T4 sequence: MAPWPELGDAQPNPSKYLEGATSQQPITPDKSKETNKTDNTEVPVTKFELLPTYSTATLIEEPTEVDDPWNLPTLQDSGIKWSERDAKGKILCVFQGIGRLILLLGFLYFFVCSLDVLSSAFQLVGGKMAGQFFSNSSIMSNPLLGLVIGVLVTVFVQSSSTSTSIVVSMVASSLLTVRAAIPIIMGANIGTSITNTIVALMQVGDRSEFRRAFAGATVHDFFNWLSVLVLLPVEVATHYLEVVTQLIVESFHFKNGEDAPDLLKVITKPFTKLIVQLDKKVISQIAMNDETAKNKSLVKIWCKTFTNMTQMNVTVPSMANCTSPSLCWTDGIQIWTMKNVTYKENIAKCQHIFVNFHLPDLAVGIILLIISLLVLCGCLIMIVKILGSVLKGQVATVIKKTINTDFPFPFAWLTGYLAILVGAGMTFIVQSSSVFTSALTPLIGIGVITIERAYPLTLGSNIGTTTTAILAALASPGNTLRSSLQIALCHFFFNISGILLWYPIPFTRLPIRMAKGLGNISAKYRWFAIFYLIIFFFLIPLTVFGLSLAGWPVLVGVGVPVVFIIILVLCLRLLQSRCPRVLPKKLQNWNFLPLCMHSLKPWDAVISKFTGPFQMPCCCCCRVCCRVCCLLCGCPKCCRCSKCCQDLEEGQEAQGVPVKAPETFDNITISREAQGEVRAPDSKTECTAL

[8] = target: T1, human SLC34A2; test: cell-based or functional assay
[9] = target: T1, human SLC34A2; test: cell-based or functional assay; remark: listed apart in the source
[10] = target: T2, rat SLC34A2; test: FACS, HEK293/Rat SLC34A2 cells; remark: listed apart in the source
[11] = target: T1, human SLC34A2; test: FACS, MDAH2774 cells
[12] = target: T3, mouse SLC34A2; test: FACS, HEK293/Mouse SLC34A2 cells; remark: listed apart in the source
[13] = target: T1, human SLC34A2; test: FACS, HEK293/human SLC34A2 cells
[14] = target: Cynomolgus SLC34A2 (Cynomolgus); test: FACS, cells expressing Cynomolgus SLC34A2

EC50 [1]: 11.1 nM
Top [1]: 10900 MFI
EC50 [2]: 8.61 nM
Top (MFI) [2]: 30000 MFI
EC50 [3]: 8.61 nM
binding result [4]: binds
binding result [5]: binds
EC50 [6]: 4.42 nM
Top [6]: 31500 MFI
EC50 [7]: 2.5 nM
Top (MFI) [7]: 12200 MFI
B1: 62G10E4G8.p3.z8 hIgG1 (antibody, V domains shown)
VH: QVQLVQSGAEVKKPGASVKVSCKASGYTFPSYITHWVRQAPGQGLEWIGAIYPGNADTSYIQKFKGRVTMTADKSTSTVYMELSSLRSEDTAVYYCARGTYGTSAWFTYWGQGTLVTVSS
VL: EIVLTQSPATLSASPGERATLSCRARQNIGNNLYWYQQKPGQSPRLLIKYASQSISGIPSRFSGSGSGTDFTLTISSVQSEDFAVYFCQQSFSWPLTFGAGTKLEIK
notes: humanized hIgG1

EC50 [1]: 11.4 nM
Top [1]: 11300 MFI
EC50 [2]: 4.32 nM
Top (MFI) [2]: 28200 MFI
EC50 [3]: 4.32 nM
ADCC reporter EC50 [8]: 3.78 nM
ADCC reporter Top (MFI) [8]: 116000 MFI
binding result [4]: binds
binding result [5]: binds
EC50 [6]: 5.07 nM
Top [6]: 31900 MFI
EC50 [7]: 3.4 nM
Top (MFI) [7]: 14700 MFI
B2: 62G10E4G8.p3.z11 hIgG1 (antibody, V domains shown)
VH: B1 VH with R38K, M70L, V79A
VL: B1 VL with A13V, V78L, A100Q
notes: humanized hIgG1

ADCC reporter EC50 [9]: 1.31 nM
ADCC reporter Top (MFI) [9]: 15700 MFI
ADCC-HEK293 [9]: 2.02 nM
ADCC-OVCAR3 [9]: 2.97 nM
EC50 [10]: 715 nM
EC50 [11]: 8.74 nM
EC50 [12]: 412 nM
EC50 [13]: 8.25 nM
EC50 [14]: 1080 nM
B3: RG-7599 (antibody, INN chains, looked up, V domains shown)
VH: EVQLVESGGGLVQPGGSLRLSCAASGFSFSDFAMSWVRQAPGKGLEWVATIGRVAFHTYYPDSMKGRFTISRDNSKNTLYLQMNSLRAEDTAVYYCARHRGFDVGHFDFWGQGTLVTVSS
VL: DIQMTQSPSSLSASVGDRVTITCRSSETLVHSSGNTYLEWYQQKPGKAPKLLIYRVSNRFSGVPSRFSGSGSGTDFTLTISSLQPEDFATYYCFQGSFNPLTFGQGTKVEIK
modifications: vedotin (MMAE) payload
Cytotoxic Effect - MDAH-2774 [9]: 6.83 nM
Cytotoxic Effect - OVCAR3 [9]: 0.325 nM
